Measured values reported in PMC5653825, “Arrhythmogenic cardiomyopathy related DSG2 mutations affect desmosomal cadherin binding kinetics” (Scientific Reports, 2017).

What was measured:
[1] = target: Dsg2 (Homo sapiens) (UniProt Q14126); experiment: sedimentation equilibrium AUC; conditions: cited from earlier work
[2] = target: the molecule itself; experiment: AFM single molecule force spectroscopy; Dsg2 EC1-4 covalently immobilised on both the AFM tip (long PEG linker) and the gold substrate; calcium buffer (2 mM CaCl2, 10 mM HEPES, 150 mM NaCl, pH 7.4); pulling velocities 200 to 5,000 nm s^-1; k- and x from the Evans and Ritchie model, Kd and k+ from the free energy by Jarzynski's equality; monomer to homodimer

Dsg2, sequence (Q14126 50-609): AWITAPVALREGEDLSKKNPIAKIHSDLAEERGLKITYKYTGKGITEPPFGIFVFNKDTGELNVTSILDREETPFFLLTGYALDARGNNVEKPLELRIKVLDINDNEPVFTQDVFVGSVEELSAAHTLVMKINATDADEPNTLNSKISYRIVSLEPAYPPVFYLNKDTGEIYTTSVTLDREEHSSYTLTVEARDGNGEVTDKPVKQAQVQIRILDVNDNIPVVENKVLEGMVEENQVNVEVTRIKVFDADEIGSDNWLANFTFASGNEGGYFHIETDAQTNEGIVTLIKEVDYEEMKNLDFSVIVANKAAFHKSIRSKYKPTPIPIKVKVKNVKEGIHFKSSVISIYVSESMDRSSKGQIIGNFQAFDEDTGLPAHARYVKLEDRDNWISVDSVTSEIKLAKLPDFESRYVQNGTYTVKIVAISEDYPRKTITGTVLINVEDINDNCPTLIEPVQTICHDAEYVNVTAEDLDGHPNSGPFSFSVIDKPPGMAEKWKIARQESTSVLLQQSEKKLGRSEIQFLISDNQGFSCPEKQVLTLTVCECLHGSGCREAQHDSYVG

Row | Molecule | Kd [1] [µM] | Kd [2] [µM] | bond lifetime tau [2] [s] | koff [2] [s⁻¹] | kon [2] [M⁻¹ s⁻¹]
1 | Dsg2 (from UniProt Q14126) | 433 | – | – | – | –
2 | Desmoglein-2 (Dsg2) p.V343I (p.V392I), recombinant extracellular cadherin domains 1-4 (EC1-4) (domain or fragment, thiol of the unique cysteine C447 (C496) covalently coupled to the maleimide of a cross-linker (maleimide-PEG-succinimidyl valerate 3,400 on the cantilever; NHS 3-maleimidopropionate on the gold substrate)) AWITAPVALREGEDLSKKNPIAKIHSDLAEERGLKITYKYTGKGITEPPFGIFVFNKDTGELNVTSILDREETPFFLLTGYALDARGNNVEKPLELRIKVLDINDNEPVFTQDVFVGSVEELSAAHTLVMKINATDADEPNTLNSKISYRIVSLEPAYPPVFYLNKDTGEIYTTSVTLDREEHSSYTLTVEARDGNGEVTDKPVKQAQVQIRILDVNDNIPVVENKVLEGMVEENQVNVEVTRIKVFDADEIGSDNWLANFTFASGNEGGYFHIETDAQTNEGIVTLIKEVDYEEMKNLDFSVIVANKAAFHKSIRSKYKPTPIPIKVKVKNVKEGIHFKSSIISIYVSESMDRSSKGQIIGNFQAFDEDTGLPAHARYVKLEDRDNWISVDSVTSEIKLAKLPDFESRYVQNGTYTVKIVAISEDYPRKTITGTVLINVEDINDNCPTLIEPV | – | 1010 | 1.73 | 0.58 | 573
3 | Desmoglein-2 (Dsg2) wildtype, recombinant extracellular cadherin domains 1-4 (EC1-4) (domain or fragment, thiol of the unique cysteine C447 (C496) covalently coupled to the maleimide of a cross-linker (maleimide-PEG-succinimidyl valerate 3,400 on the cantilever; NHS 3-maleimidopropionate on the gold substrate)) AWITAPVALREGEDLSKKNPIAKIHSDLAEERGLKITYKYTGKGITEPPFGIFVFNKDTGELNVTSILDREETPFFLLTGYALDARGNNVEKPLELRIKVLDINDNEPVFTQDVFVGSVEELSAAHTLVMKINATDADEPNTLNSKISYRIVSLEPAYPPVFYLNKDTGEIYTTSVTLDREEHSSYTLTVEARDGNGEVTDKPVKQAQVQIRILDVNDNIPVVENKVLEGMVEENQVNVEVTRIKVFDADEIGSDNWLANFTFASGNEGGYFHIETDAQTNEGIVTLIKEVDYEEMKNLDFSVIVANKAAFHKSIRSKYKPTPIPIKVKVKNVKEGIHFKSSVISIYVSESMDRSSKGQIIGNFQAFDEDTGLPAHARYVKLEDRDNWISVDSVTSEIKLAKLPDFESRYVQNGTYTVKIVAISEDYPRKTITGTVLINVEDINDNCPTLIEPV | – | 412 | 0.33 | 2.99 | 7270
4 | Desmoglein-2 (Dsg2) p.D105E (p.D154E), recombinant extracellular cadherin domains 1-4 (EC1-4) (domain or fragment, thiol of the unique cysteine C447 (C496) covalently coupled to the maleimide of a cross-linker (maleimide-PEG-succinimidyl valerate 3,400 on the cantilever; NHS 3-maleimidopropionate on the gold substrate)) AWITAPVALREGEDLSKKNPIAKIHSDLAEERGLKITYKYTGKGITEPPFGIFVFNKDTGELNVTSILDREETPFFLLTGYALDARGNNVEKPLELRIKVLDINENEPVFTQDVFVGSVEELSAAHTLVMKINATDADEPNTLNSKISYRIVSLEPAYPPVFYLNKDTGEIYTTSVTLDREEHSSYTLTVEARDGNGEVTDKPVKQAQVQIRILDVNDNIPVVENKVLEGMVEENQVNVEVTRIKVFDADEIGSDNWLANFTFASGNEGGYFHIETDAQTNEGIVTLIKEVDYEEMKNLDFSVIVANKAAFHKSIRSKYKPTPIPIKVKVKNVKEGIHFKSSVISIYVSESMDRSSKGQIIGNFQAFDEDTGLPAHARYVKLEDRDNWISVDSVTSEIKLAKLPDFESRYVQNGTYTVKIVAISEDYPRKTITGTVLINVEDINDNCPTLIEPV | – | 817 | 3.39 | 0.3 | 361
